Test results as given in the nanobody polyreactivity screen of Harvey et al. (2022).

Test: yeast display, Sf9 membrane polyspecificity reagent, FACS + sequencing; frameworks hold sequencing errors
Outline: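 Galactose-induced (36–48 hours) yeast carrying a synthetic nanobody display library were exposed to 10% biotinylated, detergent-solubilized Sf9 membrane reagent at 4 °C for 1 hour. FACS followed streptavidin microbead enrichment, using low and high (top ~1%) gates for expression (anti-HA) and reagent binding (streptavidin). Colony PCR, MiSeq 2 × 250 sequencing and CDR-length filtering followed. Labels for polyreactivity reflect the gate of origin.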

Sequence	polyreactivity (PSR sort gate)
QVQLVESGGGLVQAGVSLRLSCAASGITLYRYVMGWNRQAPGKERELVADISGRGTSTYYADSVKGRFTSSRDYAKNTVYLQMYRLKPEATAVYYCNAEYTKTGALGIPYTYYYAEDYWGQGTQVTVSS	low polyreactivity
QVQLVESGGGLVQAGVSLRLSCAASGNIFEQYAMGSDRQAPGKERELVARISWRGGSTYYADSVKGRFTISRDNAKNTVYLQLNSLKPEDTAVYYCNALEVVYFGYYPSDYWGQGTQVTVSS	low polyreactivity
QVQLVESGGGLVQAGVSLRLSCAASGRIFPYNAMGWDRQAPGKERELVAAIDWSGGRTYYADSVKGRFTISRDNAKNTDYLQMNSLKPEDTALYYCAAAYGGRLRYTAGYYWGQGTQVTVSS	high polyreactivity
QVQLVESGGGLVQAGVSLRLSCAASGRIKDNVMGWYRQAPGKERELVAAITRYAGRTYYAYSVKGRFTISRDNAKITVYLQMNSLKPVDTAVYYCAAQAERSGYEYWGLGTQVTVSS	low polyreactivity
QVQLVESGGGLVQAGVSLRLSCAASGRTFIGNAMGWYRQAPGKEREFVAAISRRGGSTYYADSVKGRFTISRDNAKNTVYLQMNSLKPEDTAVYYCAAGQTTTGILTYYYWGQGTQVTVSS	high polyreactivity
QVQLVESGGGLVQAGVSLRLSCAASGSTFGANAMGWYRQAPGKEREFVAAISGSGTTTYYADSVKGRFTISRDNAKNTVYLQMNSLKPEDTAVYYCAKTRKAHWLEYWGQGTQVTVSS	low polyreactivity
QVQLVESGGGLVQAGVSLRLSCAASGSTFVVNAMGWYRQAPGKERELVAAITQSGGSTFYADSVKGRFTISRDNAKNTVYLQMNSLKPEDTAVYYWGQGTQVTVSS	low polyreactivity
QVQLVESGGGLVQAGVSLRLSCAASMGWYRQAPGKERELVAAITRGGTTYYADSVQGRFTISRDNAKNTVYLQMNSLKPEDTAVYYGAKAGPGFLYDHWGQGTQVTVSS	high polyreactivity
QVQLVESGGGLVQAGVSLRLSCAASVITFVYYTMGWYRQAPGKERELVAAISQSAVNTYYADSVKGRFTISRDNAKNTVYLQMNSLKPEVTAVYYCNARFRATFTSYGTDYRRRFDYWGQGTQVTVSS	high polyreactivity
QVQLVESGGGLVQAGVSLRLSCAASVSIFSGNTMGWYRQAPGKERELVAAIRWRGGTYYADSVKGRFTISRDNAKNTVYLQMNSLKPEDPAVYYCATSVKPSYDYWGQGTQVTVSS	low polyreactivity
QVQLVESGGGLVQAGVSLRLSSAASGSTFLYYAMGWYRQAPGKESEMVAAIDWSDTSTYFADSVKGRFTISRDIAKNTVYLQMNSLKTEDTAVYYCIREATYVYAAGYDYWGQGTQVTVSS	low polyreactivity
QVQLVESGGGLVQAGVSLRLSSAASGSTLGYNVMGWYRQAPGKERELVAAISGDGSTNYADSVKGRFTISRDNAKNTVYLQMNSLKPEDTAVFYCNAPFWGYRTSFSYPVVQRFDYWGQGTQVTVSS	low polyreactivity
QVQLVESGGGLVQAGVSLSLSCADSGSFSDFYAMGWYRQAPGKERELVAAITSSGGSTYYADSVKGRFTISREIAKNTGYLQMNSLKPEDTAVYYCNRYSNLGYNYWGQGTQVSVSS	high polyreactivity
QVQLVESGGGLVQAPGSLRLSSAASGRIFNQYGMGWYRQAPGKERELVAAIRSGDSTNYADSVKGRFTISRDNAKNTVYLQMNSLKQEDSAVYYCARDRPGDYAGYYYWGKGTQVTVSS	low polyreactivity
QVQLVESGGGLVQARASLRLSCAASGNTIGYYAMGWYRQAHGKERELVAAISKRGGSTRYADSVKGRFTISRDNAKNTVYLQMNSLKPEDTAVYYCNAEGFGSLRYSYCNSFDYWGQGTQVTVSS	high polyreactivity
QVQLVESGGGLVQARGSHRLSCAASGSIFVINAMGWYRQAPGKERELVAAISYSGTGTYFADSVKGRFTISRDNAKNTVYLQMNSLKPEDTAVYYCAADYYYRYRIYDYWGQGTQVTVSS	low polyreactivity

Sequence	polyreactivity (PSR sort gate)
QVQLVESGGGLVQARGSLRLICAASGRTINGYVMGWYRPAPGKEREFVAVINWSGGNTYYADSVKGRFTISRDNAKNTLYLQMNSLKPEDTAVYDCAARRVRSYAYDYWGQGTEVTVSS	high polyreactivity
QVQLVESGGGLVQARGSLRLNSAASGRTFYQYVMGWYRQAPWKERELVAAIRSGGNTYYADSEKGRITISRDNAKYTVYLQMNSLKPEDTAVYYCAVQRGYYRFRLGLYCYDYWGQGTQVTVSS	high polyreactivity
QVQLVESGGGLVQARGSLRLSCAASGFTSLWNGMGLSSQAPGKERELVAAITSDSSTYYADSVKGRFTISRDNAKNTVYLQMNSLKPEDTAVYYCAKYFVYVGYGRYDYWGQGTEVTVSS	low polyreactivity
QVQLVESGGGLVQARGSLRLSCAASGIIFAFYAMGWYRQPPGKERELVAGITSGGDTYYADSVKGRFTISRDNAKKTVYLQMNRLKPEDTAVYYCAAVVQYPYRAGWRYWYATNFDYWGQGTQVTVSS	high polyreactivity
QVQLVESGGGLVQARGSLRLSCAASGIIFYPNAMGWYRQAPGKERELVASIRSGGITTYADSVKGRFTISRDNAKNTVYLQMNSLKPEDTAVYDCATRSYYRYATFAYYYWGQGTQVTVSS	high polyreactivity
QVQLVESGGGLVQARGSLRLSCAASGINFYHYPMGWYRQATGKEMELVAAINWGGSRTYYADSVKGRFTISRDNAKNTVYLQMNSLKPEDTAVYYCAAVYVPYYWLGRSRGLDYWGQGTQVTVSS	high polyreactivity
QVQLVESGGGLVQARGSLRLSCAASGRIFGLYAMGWYRQAPGKERELVASINSRGGSTNYADSVKGRFTISRDNAKNTVYLQMTSLKPEDTAVYYCNARFVYAYQRYYWGQGTQVTVSS	high polyreactivity
QVQLVESGGGLVQARGSLRLSCAASGRIFNYNAMGWYRQAPGKERELVAAITSSGGSTYYADSVKGRFTISRDNAKNTVYLQMNSLKPEDTAVYYCNALITYSSDYWGQGTQVTVSS	low polyreactivity
QVQLVESGGGLVQARGSLRLSCAASGRTFFNNAMGWYRQAPGKERELVAGISVTTGSTYYADSVKGRFTISRDNAKNTVYLQMNSLKPEDTAVYYCAARRKQYYAAYRYYYWGQGTQVTVSS	high polyreactivity
QVQLVESGGGLVQARGSLRLSCAASGRTFTYNAMAWYRQAPGKERELVAAINSGGSTNYADSVKGRFTISRDNAKNTVYLQMNSLKPEDTAVYYCNAGFGFGSSRYGTRYYYWGQGSQVTVSS	low polyreactivity
QVQLVESGGGLVQARGSLRLSCAASGRTFYYYAMGWSRQAPGKERELVATISSGGSTSYADSVKGRFTISRDNAKNTVNLQMNSLKPEDTAVYYWNGRGRYLGTYHLGRLYNFWGQGTQVTVSS	high polyreactivity
QVQLVESGGGLVQARGSLRLSCAASGSIFPPYAMGWYRQAPGKERELVAAINSGGSTNYADSVKGRFTISRDNAKNTVYLQMNSLKAEDTAVYYCAAEVVYPVYEYDYWGQGTQVTVSS	low polyreactivity
QVQLVESGGGLVQARGSLRLSCAASGSIFSYYARGLYRQAPGKESELVAAITRGGTTYYADSVKGRFTISRDNAKNSVYLQMNSLKPEDTAVYYCAVYYYSGTAGYRYGYWGQGSQVTVSS	high polyreactivity
QVQLVESGGGLVQARGSLRLSCAASGSTFDPYAMGWYRQAPGINYSGASTYYADSVKGRFTISRDNAKNTVYLQMNSLKPDDTAVYYCAAEFVAQMNYWGQGTQVNVSS	low polyreactivity
QVQLVESGGGLVQARGSLRLSCAASGSTFEANSMGWYRQAPGKERELVAVLTWTGGSTYYADSVKGRFTISRDNAKNTVNLHMISLNPEDTAVEYCAADGVLPGRFFWPAHEYDYWGQGTQVTVSS	low polyreactivity
QVQLVESGGGLVQARGSLRLSCAASGSTFSYNDMGWYRQAPGKERDLVADINVSVGRTYYADSVKGRFTISRDNAKNTVFLQMNSLKPEDTAVYYCNATLYTITSYVYAYDYWGQGTQVTVSS	low polyreactivity
